Reference: publication PMC3462793, “Erioflorin Stabilizes the Tumor Suppressor Pdcd4 by Inhibiting Its Interaction with the E3-ligase β-TrCP1” (PLoS ONE, 2012)

Biological target: T1, Programmed cell death 4 (Pdcd4), endogenous in HEK293 cells (human (endogenous in HEK293), UniProt Q53EL6 1-469)
T1 sequence (looked up): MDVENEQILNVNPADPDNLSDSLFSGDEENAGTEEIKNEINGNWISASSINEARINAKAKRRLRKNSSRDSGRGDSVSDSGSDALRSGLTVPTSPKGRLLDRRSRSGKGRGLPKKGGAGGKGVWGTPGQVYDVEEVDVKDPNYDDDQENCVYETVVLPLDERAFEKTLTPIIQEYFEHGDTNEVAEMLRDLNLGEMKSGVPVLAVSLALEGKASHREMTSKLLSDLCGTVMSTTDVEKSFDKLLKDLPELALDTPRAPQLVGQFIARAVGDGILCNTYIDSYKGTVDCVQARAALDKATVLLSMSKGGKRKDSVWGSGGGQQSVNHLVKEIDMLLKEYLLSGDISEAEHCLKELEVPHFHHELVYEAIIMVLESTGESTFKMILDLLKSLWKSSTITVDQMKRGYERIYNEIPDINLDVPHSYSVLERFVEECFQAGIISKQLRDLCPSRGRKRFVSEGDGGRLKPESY
Assay: cell-based or functional assay

B1: β-transducin repeat-containing protein 1 (β-TrCP1), overexpressed in HEK293 cells (natural protein, UniProt Q9Y297 1-605, looked up)
chain: MDPAEAVLQEKALKFMCSMPRSLWLGCSSLADSMPSLRCLYNPGTGALTAFQNSSEREDCNNGEPPRKIIPEKNSLRQTYNSCARLCLNQETVCLASTAMKTENCVAKTKLANGTSSMIVPKQRKLSASYEKEKELCVKYFEQWSESDQVEFVEHLISQMCHYQHGHINSYLKPMLQRDFITALPARGLDHIAENILSYLDAKSLCAAELVCKEWYRVTSDGMLWKKLIERMVRTDSLWRGLAERRGWGQYLFKNKPPDGNAPPNSFYRALYPKIIQDIETIESNWRCGRHSLQRIHCRSETSKGVYCLQYDDQKIVSGLRDNTIKIWDKNTLECKRILTGHTGSVLCLQYDERVIITGSSDSTVRVWDVNTGEMLNTLIHHCEAVLHLRFNNGMMVTCSKDRSIAVWDMASPTDITLRRVLVGHRAAVNVVDFDDKYIVSASGDRTIKVWNTSTCEFVRTLNGHKRGIACLQYRDRLVVSGSSDNTIRLWDIECGACLRVLEGHEELVRCIRFDNKRIVSGAYDGKIKVWDLVAALDPRAPAGTLCLRTLVEHSGRVFRLQFDEFQIVSSSHDDTILIWDFLNDPAAQAEPPRSPSRTYTYISR
- endogenous Pdcd4 protein level (western densitometry, relative to the DMSO control) in HEK293 cells treated 8 h with TPA (10 nM) and erioflorin (0.625–5 µM): 121 % of DMSO control
